From patent US20090061451A1
pKd: −log10 of the molar value.

Target: mouse monoclonal PSA antibody
Test: SPR, BIAcore 3000, antibody immobilised on CM5 chip

Row | pKd | Substance
1 | 9.15 | Prostate specific antigen (PSA) (from UniProt P07288 25-261) (enzyme)
2 | 7.74 | PSA-GOx complex (from UniProt P07288 25-261; P13006 23-605)
